Legend:
[1] = target: human GPRC5D (human) (UniProt Q9NZD1); assay: flow cytometry on NCI-H929 cells (negative control)
[2] = target: human GPRC5D (human) (UniProt Q9NZD1); assay: flow cytometry on human GPRC5D-CHOK1 cells (negative control)
[3] = target: human GPRC5D (human) (UniProt Q9NZD1); assay: as above; remark: listed apart in the source
[4] = target: cynomolgus monkey GPRC5D (cynomolgus monkey); assay: flow cytometry on cynomolgus monkey GPRC5D-CHOK1 cells (negative control)

human GPRC5D (human), sequence (Q9NZD1 whole entry): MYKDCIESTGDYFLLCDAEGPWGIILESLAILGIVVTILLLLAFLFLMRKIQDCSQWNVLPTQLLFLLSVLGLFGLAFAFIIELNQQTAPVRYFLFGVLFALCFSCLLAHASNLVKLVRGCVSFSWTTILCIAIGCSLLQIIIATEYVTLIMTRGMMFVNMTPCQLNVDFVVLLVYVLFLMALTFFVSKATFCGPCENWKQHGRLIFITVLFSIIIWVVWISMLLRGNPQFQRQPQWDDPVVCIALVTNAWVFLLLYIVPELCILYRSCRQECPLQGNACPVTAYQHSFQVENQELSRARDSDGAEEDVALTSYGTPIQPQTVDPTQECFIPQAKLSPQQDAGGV

- Top mean fluorescence intensity (Top MFI) [1]: 165 MFI
- Top mean fluorescence intensity (Top MFI) [2]: 1610 MFI
- Top mean fluorescence intensity (Top MFI) [3]: 51 MFI
- Top mean fluorescence intensity (Top MFI) [4]: 2040 MFI
Substance: IgG1 AA (negative control, purchased from Biointron, Cat. No. B109802) (antibody)
